Laboratory results: patent publication US20240132624A1 (Ablynx, published 2024)

Columns and labels:
human FcRn/b2M [1] = biological target: T1, human FcRn/b2M (human, UniProt P61769 21-119, biotinylated); experiment: SPR pH 6.0
T1 construct: bought recombinant biotinylated protein (ACRO FCM-H82W4 or Immunitrack ITF01); also called hFcRn; hFcRn/hb2M
Protocol: (§1) The affinity of the purified, multivalent ISVD constructs for human and cyno FcRn was determined on the MASS-2 (Sierra sensors, Gmbh) instrument, hFcRn/hb2M and cFcRn/cb2M was captured on a Biotin-tag Capture Chip or a High Capacity Amine Chip (pre-immobilized with neutravidin). The ISVD constructs were injected at 6 different concentrations (between 1 and 4000 nM) and allowed to associate for 120 s at 45 μL/min and dissociate for 600 s-3600 s at 45 μL/min. […] Evaluation of the sensorgrams was based on the 1:1 Langmuir dissociation model simultaneously fitting on and off-rates.

cyno FcRn/b2M [2] = biological target: T2, cyno FcRn/b2M (cyno, UniProt Q8SPV9 24-297; Q8SPW0 21-119, biotinylated); experiment: SPR pH 6.0
T2 construct: bought recombinant biotinylated protein (Immunitrack ITF05 or ACRO FCM-C82W5); also called cFcRn; cFcRn/cb2M
Protocol: as §1

human FcRn/b2M [3] = biological target: T1, human FcRn/b2M; experiment: SPR pH 7.4
Protocol: as §1

cyno FcRn/b2M [4] = biological target: T2, cyno FcRn/b2M; experiment: SPR pH 7.4
Protocol: as §1

human serum albumin [5] = biological target: T3, human serum albumin (human, UniProt P02768 25-609); experiment: SPR pH 6.0
T3 construct: also called HSA
Protocol: (§2) The affinity of the purified, multivalent ISVD constructs for human and mouse serum albumin (HSA and MSA, respectively) was determined on the ProteOn XPR36 (BioRad Laboratories, Inc.) instrument. […] The ISVD constructs were injected at 6 different concentrations (between 1 and 500 nM) and allowed to associate for 120 s at 45 μL/min and dissociate for 600s-3600s at 45 μL/min. Evaluation of the sensorgrams was based on the 1:1 Langmuir dissociation model simultaneously fitting on and off-rates.

mouse serum albumin [6] = biological target: T4, mouse serum albumin (mouse, UniProt P07724 25-608); experiment: SPR pH 6.0
T4 construct: also called MSA
Protocol: as §2

human serum albumin [7] = biological target: T3, human serum albumin; experiment: SPR pH 7.4
Protocol: as §2

mouse serum albumin [8] = biological target: T4, mouse serum albumin; experiment: SPR pH 7.4
Protocol: as §2

human FcRn/b2M [9] = biological target: T1, human FcRn/b2M; experiment: SPR pH 6.0; remark: listed apart in the source
Protocol: as §1

cyno FcRn/b2M [10] = biological target: T2, cyno FcRn/b2M; experiment: SPR pH 6.0; remark: listed apart in the source
Protocol: as §1

human FcRn/b2M [11] = biological target: T1, human FcRn/b2M; experiment: SPR pH 7.4; remark: listed apart in the source
Protocol: as §1

cyno FcRn/b2M [12] = biological target: T2, cyno FcRn/b2M; experiment: SPR pH 7.4; remark: listed apart in the source
Protocol: as §1

human serum albumin [13] = biological target: T3, human serum albumin; experiment: SPR pH 6.0; remark: listed apart in the source
Protocol: as §2

mouse serum albumin [14] = biological target: T4, mouse serum albumin; experiment: SPR pH 6.0; remark: listed apart in the source
Protocol: as §2

human serum albumin [15] = biological target: T3, human serum albumin; experiment: SPR pH 7.4; remark: listed apart in the source
Protocol: as §2

mouse serum albumin [16] = biological target: T4, mouse serum albumin; experiment: SPR pH 7.4; remark: listed apart in the source
Protocol: as §2

T2 sequence (Q8SPV9 24-297 limits assumed, chain 1 of 2): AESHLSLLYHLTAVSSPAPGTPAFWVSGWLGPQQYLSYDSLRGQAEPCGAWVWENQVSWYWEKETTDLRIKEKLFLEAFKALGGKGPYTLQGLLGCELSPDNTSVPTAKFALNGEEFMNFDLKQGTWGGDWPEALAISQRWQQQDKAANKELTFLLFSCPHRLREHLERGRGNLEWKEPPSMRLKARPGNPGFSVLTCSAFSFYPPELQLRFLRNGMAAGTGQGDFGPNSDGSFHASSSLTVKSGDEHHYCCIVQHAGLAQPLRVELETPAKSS
T2 sequence (Q8SPW0 21-119 limits assumed, chain 2 of 2): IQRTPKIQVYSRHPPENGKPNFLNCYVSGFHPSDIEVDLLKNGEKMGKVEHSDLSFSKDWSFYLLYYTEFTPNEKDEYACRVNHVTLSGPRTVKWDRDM
T4 sequence (P07724 25-608 limits assumed): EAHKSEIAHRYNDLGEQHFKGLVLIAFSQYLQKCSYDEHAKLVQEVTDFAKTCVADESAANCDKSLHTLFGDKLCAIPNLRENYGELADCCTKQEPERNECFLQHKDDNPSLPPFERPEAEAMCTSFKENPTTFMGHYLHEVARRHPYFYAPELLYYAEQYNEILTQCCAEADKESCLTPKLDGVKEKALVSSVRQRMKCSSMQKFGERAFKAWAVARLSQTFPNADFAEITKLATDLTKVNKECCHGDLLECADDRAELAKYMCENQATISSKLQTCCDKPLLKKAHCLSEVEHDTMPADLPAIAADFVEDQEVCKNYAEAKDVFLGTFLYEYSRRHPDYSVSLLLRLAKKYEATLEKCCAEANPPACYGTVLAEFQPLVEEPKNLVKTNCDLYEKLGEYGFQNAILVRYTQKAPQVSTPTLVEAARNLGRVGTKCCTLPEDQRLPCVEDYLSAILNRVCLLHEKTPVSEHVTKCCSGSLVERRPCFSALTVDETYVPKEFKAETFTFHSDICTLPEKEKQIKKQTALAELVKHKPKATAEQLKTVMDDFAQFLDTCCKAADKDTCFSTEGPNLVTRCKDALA

| Binder | Kd (human FcRn/b2M [1]) | Kd (cyno FcRn/b2M [2]) | Kd (human FcRn/b2M [3]) | Kd (cyno FcRn/b2M [4]) | Kd (human serum albumin [5]) | koff (mouse serum albumin [6]) | Kd (human serum albumin [7]) | koff (mouse serum albumin [8]) | Kd (human FcRn/b2M [9]) | Kd (cyno FcRn/b2M [10]) | Kd (human FcRn/b2M [11]) | Kd (cyno FcRn/b2M [12]) | Kd (human serum albumin [13]) | Kd (mouse serum albumin [14]) | Kd (human serum albumin [15]) | Kd (mouse serum albumin [16]) |
| --- | --- | --- | --- | --- | --- | --- | --- | --- | --- | --- | --- | --- | --- | --- | --- | --- |
| T026301170 (bispecific antibody, bispecific ISVD construct; also called T0263018B11(E1D)-35GS-ALB23002-A) DVQLVESGGGVVQPGGSLRLSCAASGFTFSSYAMYWVRQAPGKGLEWVSAISSGGGSTDYADSVKGRFTISRDNSKNTLYLQMNSLRPEDTALYYCAADTLYTSLTWYSYWGQGTLVTVSSGGGGSGGGGSGGGGSGGGGSGGGGSGGGGSGGGGSEVQLVESGGGVVQPGGSLRLSCAASGFTFRSFGMSWVRQAPGKGPEWVSSISGSGSDTLYADSVKGRFTISRDNSKNTLYLQMNSLRPEDTALYYCTIGGSLSRSSQGTLVTVSSA | – | – | – | – | – | – | – | – | 12 nM | 7.9 nM | 450 nM | 290 nM | 6.1 nM | 67 nM | 13 nM | 85 nM |
| T026301197 (bispecific antibody, name in Kabat numbering, bispecific ISVD construct; also called T0263018B11(E1D, S52aQ)-35GS-ALB23002-A) DVQLVESGGGVVQPGGSLRLSCAASGFTFSSYAMYWVRQAPGKGLEWVSAISQGGGSTDYADSVKGRFTISRDNSKNTLYLQMNSLRPEDTALYYCAADTLYTSLTWYSYWGQGTLVTVSSGGGGSGGGGSGGGGSGGGGSGGGGSGGGGSGGGGSEVQLVESGGGVVQPGGSLRLSCAASGFTFRSFGMSWVRQAPGKGPEWVSSISGSGSDTLYADSVKGRFTISRDNSKNTLYLQMNSLRPEDTALYYCTIGGSLSRSSQGTLVTVSSA | – | – | – | – | – | – | – | – | 71 nM | 41 nM | 2600 nM | 2400 nM | 5.1 nM | 57 nM | 11 nM | 69 nM |
| T026301198 (bispecific antibody, name in Kabat numbering, bispecific ISVD construct; also called T0263018B11(E1D, W100cS)-35GS-ALB23002-A) DVQLVESGGGVVQPGGSLRLSCAASGFTFSSYAMYWVRQAPGKGLEWVSAISSGGGSTDYADSVKGRFTISRDNSKNTLYLQMNSLRPEDTALYYCAADTLYTSLTSYSYWGQGTLVTVSSGGGGSGGGGSGGGGSGGGGSGGGGSGGGGSGGGGSEVQLVESGGGVVQPGGSLRLSCAASGFTFRSFGMSWVRQAPGKGPEWVSSISGSGSDTLYADSVKGRFTISRDNSKNTLYLQMNSLRPEDTALYYCTIGGSLSRSSQGTLVTVSSA | – | – | – | – | – | – | – | – | – | 67 nM | 2500 nM | 2900 nM | 7.3 nM | 89 nM | 15 nM | 120 nM |

Continued, values first:

| Kd (human FcRn/b2M [1]) | Kd (cyno FcRn/b2M [2]) | Kd (human FcRn/b2M [3]) | Kd (cyno FcRn/b2M [4]) | Kd (human serum albumin [5]) | koff (mouse serum albumin [6]) | Kd (human serum albumin [7]) | koff (mouse serum albumin [8]) | Kd (human FcRn/b2M [9]) | Kd (cyno FcRn/b2M [10]) | Kd (human FcRn/b2M [11]) | Kd (cyno FcRn/b2M [12]) | Kd (human serum albumin [13]) | Kd (mouse serum albumin [14]) | Kd (human serum albumin [15]) | Kd (mouse serum albumin [16]) | Binder |
| --- | --- | --- | --- | --- | --- | --- | --- | --- | --- | --- | --- | --- | --- | --- | --- | --- |
| 25 nM | 15 nM | 830 nM | 480 nM | 9.8 nM | 0.038 s⁻¹ | 7.32 nM | 0.037 s⁻¹ | – | – | – | – | – | – | – | – | T026301259 (bispecific antibody, not shown: small tags and cut ends, tetravalent ISVD construct; also called X-Y-FcRn-ALB23002) EVQLVESGGGVVQPGGSLRLSCAASGFTFSSYAMYWVRQAPGKGLEWVSAISSGGGSTDYADSVKGRFTISRDNSKNTLYLQMNSLRPEDTALYYCAADTLYTSLTWYSYWGQGTLVTVSSGGGGSGGGSEVQLVESGGGVVQPGGSLRLSCAASGFTFRSFGMSWVRQAPGKGPEWVSSISGSGSDTLYADSVKGRFTISRDNSKNTLYLQMNSLRPEDTALYYCTIGGSLSRSSQGTLVTVSSA |
| 34 nM | 20 nM | 1200 nM | 710 nM | 14 nM | 0.056 s⁻¹ | 11 nM | 0.052 s⁻¹ | – | – | – | – | – | – | – | – | T026301257 (bispecific antibody, not shown: small tags and cut ends, tetravalent ISVD construct; also called X-Y-FcRn-35GS-ALB23002) EVQLVESGGGVVQPGGSLRLSCAASGFTFSSYAMYWVRQAPGKGLEWVSAISSGGGSTDYADSVKGRFTISRDNSKNTLYLQMNSLRPEDTALYYCAADTLYTSLTWYSYWGQGTLVTVSSGGGGSGGGGSGGGGSGGGGSGGGGSGGGGSGGGGSEVQLVESGGGVVQPGGSLRLSCAASGFTFRSFGMSWVRQAPGKGPEWVSSISGSGSDTLYADSVKGRFTISRDNSKNTLYLQMNSLRPEDTALYYCTIGGSLSRSSQGTLVTVSSA |
| – | 180 nM | – | – | 10 nM | – | 7.5 nM | – | – | – | – | – | – | – | – | – | T026301366 (bispecific antibody, not shown: small tags and cut ends, tetravalent ISVD construct; also called X-Y-FcRn(W100cS)-35GS-ALB23002) EVQLVESGGGVVQPGGSLRLSCAASGFTFSSYAMYWVRQAPGKGLEWVSAISSGGGSTDYADSVKGRFTISRDNSKNTLYLQMNSLRPEDTALYYCAADTLYTSLTSYSYWGQGTLVTVSSGGGGSGGGGSGGGGSGGGGSGGGGSGGGGSGGGGSEVQLVESGGGVVQPGGSLRLSCAASGFTFRSFGMSWVRQAPGKGPEWVSSISGSGSDTLYADSVKGRFTISRDNSKNTLYLQMNSLRPEDTALYYCTIGGSLSRSSQGTLVTVSSA |
